According to paper PMC10927090, “Plasmodium falciparum contains functional SCF and CRL4 ubiquitin E3 ligases, and CRL4 is critical for cell division and membrane integrity” (PLOS Pathogens, 2024):

What was measured:
[1] = biological target: T1, GST-tagged N-terminal of PfCullin-1 (1-300 aa) (P. falciparum, UniProt Q8IAU5 1-300); experiment: far-Western, overlay or dot blot; dot blot protein overlay: different amounts of HisSkp, HisSUMO/Rbx or HisSUMO spotted on nitrocellulose, blocked (3% BSA in PBS-T), overlaid with 10 μg of GST or GST-tagged protein for 12 h at 4°C, detected with anti-GST antibodies; conditions: both partners purified
T1 construct: P. falciparum Cullin-1 (PfCullin-1, PF3D7_0811000), N-terminal coding region, residues 1-300, in pGEX-6P-1; also called GST/Cul1N; GST/PfCul1N; source: E. coli BL21(DE3), purified (glutathione agarose, native conditions); not shown: GST, N-terminal, kept
T1 sequence (looked up): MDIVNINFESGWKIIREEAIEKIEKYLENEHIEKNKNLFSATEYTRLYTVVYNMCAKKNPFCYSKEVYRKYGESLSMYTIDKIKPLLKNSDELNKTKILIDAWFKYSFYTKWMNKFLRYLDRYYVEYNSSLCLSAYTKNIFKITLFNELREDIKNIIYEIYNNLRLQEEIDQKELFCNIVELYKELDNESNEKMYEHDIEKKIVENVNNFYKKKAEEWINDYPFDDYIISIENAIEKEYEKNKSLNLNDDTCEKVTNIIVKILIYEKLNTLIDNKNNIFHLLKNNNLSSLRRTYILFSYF

[2] = biological target: T2, GST-tagged C-terminal of PfCullin-1 (601-829 aa) (P. falciparum, UniProt Q8IAU5 601-829); experiment: as above; conditions: both partners purified
T2 construct: P. falciparum Cullin-1 (PfCullin-1, PF3D7_0811000), C-terminal coding region, residues 601-829, amplified from cDNA, in pGEX-6P-1; also called GST/Cul1C; GST/PfCul1C; source: E. coli BL21(DE3), purified (glutathione agarose, native conditions); not shown: GST, N-terminal, kept
T2 sequence (looked up): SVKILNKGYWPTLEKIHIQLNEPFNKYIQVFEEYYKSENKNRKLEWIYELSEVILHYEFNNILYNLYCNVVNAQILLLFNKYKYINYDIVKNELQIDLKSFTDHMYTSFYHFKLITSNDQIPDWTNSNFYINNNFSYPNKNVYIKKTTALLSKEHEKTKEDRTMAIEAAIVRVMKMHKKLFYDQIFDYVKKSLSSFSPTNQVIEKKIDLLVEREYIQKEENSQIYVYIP

B1: 6×His-tagged PfSkp1 (natural protein, P. falciparum, UniProt Q8ID38 1-162, looked up)
chain: MKNDKIKLVSFEGDEFIVDKNTASMSTVIMNILEVMTAEEDTIPLPNIKTPILKKIIEYMEYHINNPADEIPKPLITSNLQDVVSSWDFDFVNTDKETLYELIEASNYLDIKPLLDLTCGKIASMMKDKTTEEIRAEFDIVNDFTREEEKQIREENRWCGDI
notes: P. falciparum Skp1 (PfSkp1, PF3D7_1367000), complete coding region amplified from genomic DNA, in pET28a; also called HisSkp; HisPfSkp1; source: E. coli Rosetta-gami 2(DE3) pLysS, purified (Ni-NTA, native conditions); not shown: His6, N-terminal, kept
B1: binds [1].

B2: 6×His/SUMO-tagged PfRbx1 (natural protein, P. falciparum, UniProt O77367 1-107, looked up)
chain: MADNITNDKRDIFKIHKWSAVAAWSWDISVDNCAICRNHIMDLCIECQAKTTDHENDKDKKIDKEGCTVAWGVCNHAFHLHCISRWIKARQVCPLDNTTWEFQKATD
notes: P. falciparum Rbx1 (PfRbx1, PF3D7_0319100), complete coding region, subcloned into pSMO; also called HisSUMO/Rbx; HisSUMO/PfRbx1; source: E. coli Rosetta-gami 2(DE3) pLysS, purified (Ni-NTA, native conditions); not shown: His6, N-terminal, kept; SUMO, N-terminal, kept
B2: binds [2].
